The target of assay [1] is mouse KLB and mouse FGFR1c co-expressed on HEK293/mKLB/mFGFR1c/SRE-Luc cells (mouse). The assay can be described thus: FACS on stable HEK293 cells, 33 nM.
For assay [2] the target is unchanged. The assay can be described thus: FACS on stable HEK293 cells, 965 nM.
Assay [3] concerns the target extracellular domain of human KLB expressed with C-terminal HA and hexahistidine tags (human) (UniProt Q86Z14). The assay is described as follows: SPR, mAb captured, 25 C.
The target of assay [4] is extracellular domain of human FGFR1c expressed with C-terminal V5 and hexahistidine tags (human) (UniProt P11362). The assay can be described thus: SPR, mAb captured, 25 C.
For assay [5], the target named is extracellular domain of human KLB expressed with C-terminal HA and hexahistidine tags (human) (UniProt Q86Z14). The assay is described as follows: SPR, mAb captured, 37 C.
For assay [6], the target named is extracellular domain of human FGFR1c expressed with C-terminal V5 and hexahistidine tags (human) (UniProt P11362). The assay is described as follows: SPR, mAb captured, 37 C.
In assay [7] the target is full-length human FGFR1c on HEK293/hFGFR1c/SRE-luc cells (human) (UniProt P11362). The assay can be described thus: FACS on stable HEK293 cells.
Assay [8] deals with full-length human KLB on HEK293/hKLB/SRE-luc cells (human) (UniProt Q86Z14). The assay can be described thus: FACS on stable HEK293 cells.
For assay [9], the target named is human KLB and human FGFR1c co-expressed on HEK293/hKLB/hFGFR1c/SRE-luc cells (human) (UniProt Q86Z14). The assay can be described thus: FACS on stable HEK293 cells.
Chain of human KLB and human FGFR1c co-expressed on HEK293/hKLB/hFGFR1c/SRE-luc cells (human) (Q86Z14 whole entry, chain 1 of 2): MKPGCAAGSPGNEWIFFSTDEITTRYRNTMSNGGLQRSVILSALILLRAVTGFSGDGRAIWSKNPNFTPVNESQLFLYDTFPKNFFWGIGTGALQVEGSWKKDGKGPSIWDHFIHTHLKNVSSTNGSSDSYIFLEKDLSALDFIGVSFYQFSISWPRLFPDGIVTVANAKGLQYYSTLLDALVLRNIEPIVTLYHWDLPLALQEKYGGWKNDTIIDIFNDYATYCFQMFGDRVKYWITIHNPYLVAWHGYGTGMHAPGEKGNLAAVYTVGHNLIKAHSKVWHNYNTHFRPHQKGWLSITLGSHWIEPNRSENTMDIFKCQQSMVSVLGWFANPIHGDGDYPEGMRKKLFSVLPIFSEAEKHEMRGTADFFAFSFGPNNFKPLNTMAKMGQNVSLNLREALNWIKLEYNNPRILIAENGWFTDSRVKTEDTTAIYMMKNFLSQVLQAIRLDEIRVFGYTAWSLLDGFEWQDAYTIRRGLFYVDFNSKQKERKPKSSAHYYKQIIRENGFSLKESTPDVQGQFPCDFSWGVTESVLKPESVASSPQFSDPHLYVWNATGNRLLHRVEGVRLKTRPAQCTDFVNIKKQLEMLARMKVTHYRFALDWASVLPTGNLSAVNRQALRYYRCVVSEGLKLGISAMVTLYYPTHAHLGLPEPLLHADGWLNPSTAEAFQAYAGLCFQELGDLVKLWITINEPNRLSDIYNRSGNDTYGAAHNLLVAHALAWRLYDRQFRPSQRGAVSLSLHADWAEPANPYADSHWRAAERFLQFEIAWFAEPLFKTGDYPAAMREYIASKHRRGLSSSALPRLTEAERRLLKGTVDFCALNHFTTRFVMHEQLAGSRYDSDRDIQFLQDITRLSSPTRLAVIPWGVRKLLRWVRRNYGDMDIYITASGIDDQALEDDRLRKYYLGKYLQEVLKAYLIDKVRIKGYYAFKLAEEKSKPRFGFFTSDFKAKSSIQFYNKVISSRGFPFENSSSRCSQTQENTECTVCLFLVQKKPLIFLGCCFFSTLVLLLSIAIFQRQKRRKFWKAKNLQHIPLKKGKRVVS
Chain of human KLB and human FGFR1c co-expressed on HEK293/hKLB/hFGFR1c/SRE-luc cells (human) (chain, as listed by the source limits assumed, chain 2 of 2): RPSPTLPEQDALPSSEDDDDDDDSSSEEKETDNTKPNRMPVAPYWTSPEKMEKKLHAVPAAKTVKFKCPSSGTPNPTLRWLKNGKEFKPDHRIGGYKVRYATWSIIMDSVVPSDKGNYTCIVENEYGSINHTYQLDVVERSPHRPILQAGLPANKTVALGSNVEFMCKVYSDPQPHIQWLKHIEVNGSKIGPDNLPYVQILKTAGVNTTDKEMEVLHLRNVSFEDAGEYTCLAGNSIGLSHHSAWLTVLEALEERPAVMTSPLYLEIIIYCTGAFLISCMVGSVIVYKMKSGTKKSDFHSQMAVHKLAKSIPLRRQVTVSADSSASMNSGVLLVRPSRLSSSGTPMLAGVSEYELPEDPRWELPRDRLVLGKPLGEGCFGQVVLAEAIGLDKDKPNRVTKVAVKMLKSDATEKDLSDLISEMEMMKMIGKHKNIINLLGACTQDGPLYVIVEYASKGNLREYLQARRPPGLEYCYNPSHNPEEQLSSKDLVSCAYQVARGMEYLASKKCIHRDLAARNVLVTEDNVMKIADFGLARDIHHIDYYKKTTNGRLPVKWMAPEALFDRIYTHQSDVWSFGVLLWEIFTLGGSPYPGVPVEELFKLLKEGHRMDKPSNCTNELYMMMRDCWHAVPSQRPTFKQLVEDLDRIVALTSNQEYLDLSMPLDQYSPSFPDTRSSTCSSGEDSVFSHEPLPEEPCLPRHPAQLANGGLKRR

Chain of extracellular domain of human FGFR1c expressed with C-terminal V5 and hexahistidine tags (human) (P11362 other isoform, or with tags, fused parts or gaps limits assumed): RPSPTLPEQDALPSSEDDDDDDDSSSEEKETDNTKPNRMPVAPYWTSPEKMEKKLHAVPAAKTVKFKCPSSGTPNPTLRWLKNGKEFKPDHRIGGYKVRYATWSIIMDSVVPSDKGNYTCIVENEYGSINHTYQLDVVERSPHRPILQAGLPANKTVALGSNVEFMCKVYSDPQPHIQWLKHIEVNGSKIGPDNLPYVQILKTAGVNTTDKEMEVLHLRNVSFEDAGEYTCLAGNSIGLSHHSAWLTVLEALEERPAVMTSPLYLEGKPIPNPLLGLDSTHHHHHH
Chain of extracellular domain of human KLB expressed with C-terminal HA and hexahistidine tags (human) (Q86Z14 1-996 limits assumed): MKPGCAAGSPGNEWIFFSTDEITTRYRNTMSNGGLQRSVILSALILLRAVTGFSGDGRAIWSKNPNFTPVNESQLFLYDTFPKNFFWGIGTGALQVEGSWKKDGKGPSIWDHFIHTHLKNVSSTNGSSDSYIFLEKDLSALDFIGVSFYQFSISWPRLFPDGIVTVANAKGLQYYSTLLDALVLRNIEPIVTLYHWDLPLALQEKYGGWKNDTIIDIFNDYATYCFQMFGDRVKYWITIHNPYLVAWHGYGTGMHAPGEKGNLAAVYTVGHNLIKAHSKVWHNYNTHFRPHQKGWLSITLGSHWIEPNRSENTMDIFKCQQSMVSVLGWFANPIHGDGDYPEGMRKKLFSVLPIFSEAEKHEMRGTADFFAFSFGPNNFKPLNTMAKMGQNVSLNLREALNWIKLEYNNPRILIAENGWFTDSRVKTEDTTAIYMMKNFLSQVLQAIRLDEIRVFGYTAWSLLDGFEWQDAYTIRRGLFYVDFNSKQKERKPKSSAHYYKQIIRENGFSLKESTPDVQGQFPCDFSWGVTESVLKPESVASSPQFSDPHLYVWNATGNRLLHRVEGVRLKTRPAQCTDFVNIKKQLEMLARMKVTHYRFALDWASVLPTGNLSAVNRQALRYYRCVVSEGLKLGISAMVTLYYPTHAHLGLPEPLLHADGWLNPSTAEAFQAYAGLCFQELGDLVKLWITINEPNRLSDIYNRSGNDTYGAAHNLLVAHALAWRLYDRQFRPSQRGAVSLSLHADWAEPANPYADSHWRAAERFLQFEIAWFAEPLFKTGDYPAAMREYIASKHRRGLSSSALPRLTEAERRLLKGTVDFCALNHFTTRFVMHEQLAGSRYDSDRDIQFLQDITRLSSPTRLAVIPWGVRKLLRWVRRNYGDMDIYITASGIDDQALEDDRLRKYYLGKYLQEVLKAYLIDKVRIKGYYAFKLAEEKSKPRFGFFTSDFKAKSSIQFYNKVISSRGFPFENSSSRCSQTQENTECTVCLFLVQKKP
Chain of full-length human FGFR1c on HEK293/hFGFR1c/SRE-luc cells (human) (P11362 other isoform, or with tags, fused parts or gaps limits assumed): as the sequence (chain, as listed by the source limits assumed, chain 2 of 2) above
Chain of full-length human KLB on HEK293/hKLB/SRE-luc cells (human) (Q86Z14 whole entry): as the sequence (Q86Z14 whole entry, chain 1 of 2) above

B1: H1H8900P (antibody, V domains shown)
VH: QVQLVESGGGVVQPGRSLRLSCVASGFTFSSYGMHWVRQAPGKGLEWVAVISFDGSNKYYADSVKGRFTISRDNSKNTLYLQMNSLRPADTAVYYCAKDRSNYYYFGMDVWGQGTTVTVSS
VL: DIVMTQTPLSLPVTPGEPASISCRSSQSLLDSDDGNTYLDWYLQKPGQSPQLLIYTLSYRASGVPDRFSGSGSGTDFTLKISRVEAEDVGVYYCMQRIEFPLTFGGGTKVEIK
Turning to B1, the MFI Ratio to unstained cells amounted to 1 fold in assay [1] and 2 fold in [2].

B2: Comparator 3 (antibody, from another filing, V domains shown)
VH: EVQLVQSGAEVKKPGASVKVSCKVSGYTFTDYYMHWVQQAPGKGLEWMGLVDPEDGETIYAEKFQGRVTITADTSTDTAYMELSSLRSEDTAVYYCARDDYMDVWGKGTLVTVSS
VL: ETTLTQSPDTLSLSPGEGATLSCRASQSVSGSALAWYQQKPGQAPRLLIYDASSRATGVPDRFSGSGSGADFSLTISRLEPEDFAVYSCQQYGSSPLTFGPGTKVDVKR
B2 showed a 20 nM hKLB-HA-6His Bind (RU) in assay [3] of -1.1 RU. Besides, in assay [4], the 180 nM hFGFR1c-V5-6His Bind (RU) came out at 16.4 RU, the Kd worked out at 4.12 nM, the koff was 0.0129 s⁻¹ and the on-rate constant (kon) turned out to be 3.13e+06 M⁻¹ s⁻¹. Besides, the t1/2 in assay [4] worked out at 54 s. Moreover, in [5], the 20 nM hKLB-HA-6His Bind (RU) is -1 RU. In assay [6], this molecule had a 180 nM hFGFR1c-V5-6His Bind (RU) of 88.8 RU, a Kd of 8.76 nM, a koff of 0.0208 s⁻¹ and an association rate constant (kon) of 2.37e+06 M⁻¹ s⁻¹. Besides, in assay [6], the t1/2 turned out to be 36 s. In addition, the binding ratio to unstained cells in assay [7] came to 27 fold. Besides, the binding ratio to unstained cells in assay [8] stood at 2 fold. In addition, the binding ratio to unstained cells in assay [9] is 33 fold.

For the origin of these results see patent US20170174769A1.
